Measured values taken from patent US20230112123A1.
pEC50: −log10 of the molar value.

Legend:
[1] = biological target: human CD70 (human) (UniProt P32970); assay: FACS binding; Raji cells
[2] = biological target: human CD70 (human) (UniProt P32970); assay: FACS binding; U266 cells
[3] = biological target: human CD70 (human) (UniProt P32970); assay: FACS binding; CHO-CD70 cells

human CD70 (human), sequence (P32970 whole entry): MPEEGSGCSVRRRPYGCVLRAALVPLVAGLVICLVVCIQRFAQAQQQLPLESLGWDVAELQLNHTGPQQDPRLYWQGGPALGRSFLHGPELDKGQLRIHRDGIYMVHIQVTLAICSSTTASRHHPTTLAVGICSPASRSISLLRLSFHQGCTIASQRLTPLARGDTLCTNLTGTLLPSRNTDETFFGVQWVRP

| pEC50 [1] | pEC50 [2] | EC50 [3] | EC50 [2] | Substance |
| --- | --- | --- | --- | --- |
| 8.66 | 9.17 |  |  | Cusatuzumab |
|  |  | 0.501 µg/mL | 0.0715 µg/mL | IMM40C |
